Test results taken from the supplement of paper PMC10065799, “High-throughput profiling of sequence recognition by tyrosine kinases and SH2 domains using bacterial peptide display” (eLife, 2023).
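Also: 11-residue human phosphosite peptides and single-mutation variants displayed on the E. coli surface, counted by deep sequencing, each peptide's frequency after selection divided by its frequency in the unselected input library; frequency after pTyr selection over input frequency; kinase dosed for 20-30% of maximal phosphorylation in three min.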

These sequences were tested against Fes (UniProt P07332) (assay: phosphorylation enrichment, bacterial display (enrichment ratio); higher = better substrate or ligand; peptides without Tyr show the background).
Chain of Fes (P07332 whole entry, looked up): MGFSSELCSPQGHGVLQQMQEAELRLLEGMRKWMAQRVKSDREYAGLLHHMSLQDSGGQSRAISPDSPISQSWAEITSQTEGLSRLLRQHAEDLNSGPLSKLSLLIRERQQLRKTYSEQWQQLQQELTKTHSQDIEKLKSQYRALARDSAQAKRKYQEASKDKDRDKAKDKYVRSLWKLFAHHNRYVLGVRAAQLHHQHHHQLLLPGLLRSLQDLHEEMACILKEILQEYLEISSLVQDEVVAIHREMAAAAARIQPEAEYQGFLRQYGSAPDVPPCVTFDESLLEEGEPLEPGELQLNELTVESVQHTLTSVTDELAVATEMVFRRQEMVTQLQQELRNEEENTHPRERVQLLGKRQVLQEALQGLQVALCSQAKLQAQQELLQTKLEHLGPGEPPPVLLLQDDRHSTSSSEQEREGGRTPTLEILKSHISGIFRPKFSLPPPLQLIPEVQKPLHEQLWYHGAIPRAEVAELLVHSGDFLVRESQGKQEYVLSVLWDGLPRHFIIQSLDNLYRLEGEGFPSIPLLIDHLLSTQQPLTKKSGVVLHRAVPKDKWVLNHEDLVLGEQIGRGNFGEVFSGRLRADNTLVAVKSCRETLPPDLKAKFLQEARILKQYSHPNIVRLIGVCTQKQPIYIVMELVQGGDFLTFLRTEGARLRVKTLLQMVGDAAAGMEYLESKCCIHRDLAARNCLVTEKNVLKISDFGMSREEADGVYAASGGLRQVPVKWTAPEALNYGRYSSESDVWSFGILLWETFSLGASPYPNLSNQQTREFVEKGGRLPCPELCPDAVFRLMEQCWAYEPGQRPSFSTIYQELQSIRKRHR
QRRLVYFEGGA [RYR1_Y245_YF] was tested, and the phosphorylation enrichment was 1.39. For TFACSYTPVKA [FLNB_Y708_YF], the phosphorylation enrichment was 1.08. With RETPLYKACER [ASB2_Y162] the phosphorylation enrichment was 1.13. Sequence DVYVSYDCGKS [SORL1_Y139_Y141C] has a phosphorylation enrichment of 1.1. PSELYYSKISP [SMG1_Y2254_G2258S] was tested, and the phosphorylation enrichment was 2.15. NEKNIYGVPLM [BMPR2_Y247_R248G] showed a phosphorylation enrichment of 0.717. Sequence YPRTGYSVPYG [TGM1_Y370_L366P] has a phosphorylation enrichment of 0.78. FGSGNYNDFGN [HNRNPA2B1_Y300_YF] showed a phosphorylation enrichment of 0.995. INPIIYAFVGE [CCR5_Y297] gave a phosphorylation enrichment of 2.02. For KLIMECLPYGS [JAK2_Y931_Y931C], the phosphorylation enrichment was 0.998. Sequence FGVVGYLAIVF [RNF175_Y155_M159V] has a phosphorylation enrichment of 1.94. Work on ADDSFYTVRSA [ZAP70_Y493_A495V_YF] yielded a phosphorylation enrichment of 0.999. With ERNTVYSSSGV [NELL2_Y350] the phosphorylation enrichment was 0.474. Work on FGAHKYHPLPV [OAT_Y55_N54K_YF] yielded a phosphorylation enrichment of 0.677. WFPYTYVEEDE [VAV3_Y842_S840Y] gave a phosphorylation enrichment of 1.3. Work on EVNETYVPKEF [ALB_Y521_D518N] yielded a phosphorylation enrichment of 1.26. VAFVFYKSIGP [ADGRL4_Y302_YF] gave a phosphorylation enrichment of 1.39. With SILAVYSKDIF [PANK2_Y400_N404I_YF] the phosphorylation enrichment was 0.663. LARDMCDKEYY [MET_Y1230_Y1230C] gave a phosphorylation enrichment of 1.89. For DNQYAYLKAII [HNF4A_Y288_E285Q], the phosphorylation enrichment was 1.09. AEPPDYSPVTH [ADGRG2_Y285] gave a phosphorylation enrichment of 1.06. With HFPDVYAREQL [ALX3_Y181_YF] the phosphorylation enrichment was 1.04. Work on RRNNSYTCYTA [SLC20A2_Y386] yielded a phosphorylation enrichment of 1.2. For LLIVEYAKFGS [RET_Y806_YF], the phosphorylation enrichment was 1.83. RLVVVYPWTQR [HBB_Y36_L33V] showed a phosphorylation enrichment of 1.17. SEHLIYLEFKS [RASGRP1_Y215_T214I] gave a phosphorylation enrichment of 1.46. Work on LDLSFYTTSSS [EMD_Y182_P183T_YF] yielded a phosphorylation enrichment of 2.65. SVMAEYGLYGA [VSX2_Y219] showed a phosphorylation enrichment of 0.882. With CTTIHDNFMCN [TP53_Y234_Y234D_YF] the phosphorylation enrichment was 0.898. LRKQDYQEILD [SLC35G2_Y403] was tested, and the phosphorylation enrichment was 1.17. With RLRIDYERVSQ [DSP_Y1542] the phosphorylation enrichment was 1.46. YHLLPYTIRAM [PARS2_Y93_V95I] gave a phosphorylation enrichment of 0.83. Work on PFNAEYGGGGG [AKR1B10_Y316] yielded a phosphorylation enrichment of 1.49.

What follows are sequences tested against MERTK (UniProt Q12866) in the same assay as above.
Chain of MERTK (Q12866 whole entry, looked up): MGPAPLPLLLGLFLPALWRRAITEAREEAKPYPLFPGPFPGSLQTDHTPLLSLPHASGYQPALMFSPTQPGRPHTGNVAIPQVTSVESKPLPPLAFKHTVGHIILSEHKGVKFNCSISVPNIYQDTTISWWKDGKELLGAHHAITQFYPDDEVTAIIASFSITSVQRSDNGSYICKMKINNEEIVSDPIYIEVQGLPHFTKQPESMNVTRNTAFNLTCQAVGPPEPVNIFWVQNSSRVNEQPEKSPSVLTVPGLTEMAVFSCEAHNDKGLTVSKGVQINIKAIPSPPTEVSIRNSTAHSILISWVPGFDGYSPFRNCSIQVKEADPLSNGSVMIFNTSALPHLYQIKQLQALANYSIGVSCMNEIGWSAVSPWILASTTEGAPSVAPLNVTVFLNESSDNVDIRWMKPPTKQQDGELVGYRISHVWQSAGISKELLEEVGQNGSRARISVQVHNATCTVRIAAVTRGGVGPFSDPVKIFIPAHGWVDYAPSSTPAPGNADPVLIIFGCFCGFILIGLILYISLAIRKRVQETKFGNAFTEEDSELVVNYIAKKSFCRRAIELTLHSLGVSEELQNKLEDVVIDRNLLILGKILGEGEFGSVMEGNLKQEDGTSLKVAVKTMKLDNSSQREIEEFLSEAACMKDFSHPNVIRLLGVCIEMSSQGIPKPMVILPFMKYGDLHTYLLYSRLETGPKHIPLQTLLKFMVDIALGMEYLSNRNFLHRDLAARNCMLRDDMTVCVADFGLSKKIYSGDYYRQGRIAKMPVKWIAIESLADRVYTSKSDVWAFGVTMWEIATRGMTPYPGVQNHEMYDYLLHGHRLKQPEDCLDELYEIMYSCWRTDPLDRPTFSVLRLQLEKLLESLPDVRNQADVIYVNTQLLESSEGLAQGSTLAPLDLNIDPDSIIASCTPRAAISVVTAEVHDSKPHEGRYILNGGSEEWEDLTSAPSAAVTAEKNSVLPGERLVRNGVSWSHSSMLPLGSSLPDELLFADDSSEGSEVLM
Work on QRRLVYFEGGA [RYR1_Y245_YF] yielded a phosphorylation enrichment of 0.531. For TFACSYTPVKA [FLNB_Y708_YF], the phosphorylation enrichment was 0.342. Work on RETPLYKACER [ASB2_Y162] yielded a phosphorylation enrichment of 0.527. Work on DVYVSYDCGKS [SORL1_Y139_Y141C] yielded a phosphorylation enrichment of 1.04. PSELYYSKISP [SMG1_Y2254_G2258S] showed a phosphorylation enrichment of 23.1. For NEKNIYGVPLM [BMPR2_Y247_R248G], the phosphorylation enrichment was 2.83. YPRTGYSVPYG [TGM1_Y370_L366P] gave a phosphorylation enrichment of 0.55. For FGSGNYNDFGN [HNRNPA2B1_Y300_YF], the phosphorylation enrichment was 0.363. INPIIYAFVGE [CCR5_Y297] was tested, and the phosphorylation enrichment was 7.72. Work on KLIMECLPYGS [JAK2_Y931_Y931C] yielded a phosphorylation enrichment of 0.489. Work on FGVVGYLAIVF [RNF175_Y155_M159V] yielded a phosphorylation enrichment of 0.498. For ADDSFYTVRSA [ZAP70_Y493_A495V_YF], the phosphorylation enrichment was 0.552. For ERNTVYSSSGV [NELL2_Y350], the phosphorylation enrichment was 0.39. FGAHKYHPLPV [OAT_Y55_N54K_YF] gave a phosphorylation enrichment of 0.376. With WFPYTYVEEDE [VAV3_Y842_S840Y] the phosphorylation enrichment was 0.625. With EVNETYVPKEF [ALB_Y521_D518N] the phosphorylation enrichment was 0.477. With VAFVFYKSIGP [ADGRL4_Y302_YF] the phosphorylation enrichment was 0.422. SILAVYSKDIF [PANK2_Y400_N404I_YF] was tested, and the phosphorylation enrichment was 2.99. LARDMCDKEYY [MET_Y1230_Y1230C] was tested, and the phosphorylation enrichment was 0.84. For DNQYAYLKAII [HNF4A_Y288_E285Q], the phosphorylation enrichment was 1.58. Work on AEPPDYSPVTH [ADGRG2_Y285] yielded a phosphorylation enrichment of 0.491. HFPDVYAREQL [ALX3_Y181_YF] was tested, and the phosphorylation enrichment was 0.408. RRNNSYTCYTA [SLC20A2_Y386] was tested, and the phosphorylation enrichment was 0.665. For LLIVEYAKFGS [RET_Y806_YF], the phosphorylation enrichment was 0.585. RLVVVYPWTQR [HBB_Y36_L33V] showed a phosphorylation enrichment of 0.727. Work on SEHLIYLEFKS [RASGRP1_Y215_T214I] yielded a phosphorylation enrichment of 0.875. Sequence LDLSFYTTSSS [EMD_Y182_P183T_YF] has a phosphorylation enrichment of 0.897. Sequence SVMAEYGLYGA [VSX2_Y219] has a phosphorylation enrichment of 0.502. For CTTIHDNFMCN [TP53_Y234_Y234D_YF], the phosphorylation enrichment was 0.37. LRKQDYQEILD [SLC35G2_Y403] gave a phosphorylation enrichment of 0.364. With RLRIDYERVSQ [DSP_Y1542] the phosphorylation enrichment was 0.539. YHLLPYTIRAM [PARS2_Y93_V95I] was tested, and the phosphorylation enrichment was 10.9. Work on PFNAEYGGGGG [AKR1B10_Y316] yielded a phosphorylation enrichment of 0.879.

What follows are sequences tested on c-Src in the same assay as above.
QRRLVYFEGGA [RYR1_Y245_YF] gave a phosphorylation enrichment of 0.376. Work on TFACSYTPVKA [FLNB_Y708_YF] yielded a phosphorylation enrichment of 0.536. RETPLYKACER [ASB2_Y162] was tested, and the phosphorylation enrichment was 0.568. With DVYVSYDCGKS [SORL1_Y139_Y141C] the phosphorylation enrichment was 3.94. Sequence PSELYYSKISP [SMG1_Y2254_G2258S] has a phosphorylation enrichment of 8.68. Work on NEKNIYGVPLM [BMPR2_Y247_R248G] yielded a phosphorylation enrichment of 3.45. YPRTGYSVPYG [TGM1_Y370_L366P] showed a phosphorylation enrichment of 0.406. In the case of FGSGNYNDFGN [HNRNPA2B1_Y300_YF], the phosphorylation enrichment is reported as 0.419. In the case of INPIIYAFVGE [CCR5_Y297], the phosphorylation enrichment is reported as 4.84. Sequence KLIMECLPYGS [JAK2_Y931_Y931C] has a phosphorylation enrichment of 0.424. FGVVGYLAIVF [RNF175_Y155_M159V] showed a phosphorylation enrichment of 0.457. In the case of ADDSFYTVRSA [ZAP70_Y493_A495V_YF], the phosphorylation enrichment is reported as 1.53. In the case of ERNTVYSSSGV [NELL2_Y350], the phosphorylation enrichment is reported as 0.666. FGAHKYHPLPV [OAT_Y55_N54K_YF] showed a phosphorylation enrichment of 0.377. With WFPYTYVEEDE [VAV3_Y842_S840Y] the phosphorylation enrichment was 1.3. In the case of EVNETYVPKEF [ALB_Y521_D518N], the phosphorylation enrichment is reported as 0.523. VAFVFYKSIGP [ADGRL4_Y302_YF] was tested, and the phosphorylation enrichment was 0.407. SILAVYSKDIF [PANK2_Y400_N404I_YF] gave a phosphorylation enrichment of 1.62. LARDMCDKEYY [MET_Y1230_Y1230C] was tested, and the phosphorylation enrichment was 0.849. DNQYAYLKAII [HNF4A_Y288_E285Q] was tested, and the phosphorylation enrichment was 0.551. Sequence AEPPDYSPVTH [ADGRG2_Y285] has a phosphorylation enrichment of 0.417. In the case of HFPDVYAREQL [ALX3_Y181_YF], the phosphorylation enrichment is reported as 0.91. Work on RRNNSYTCYTA [SLC20A2_Y386] yielded a phosphorylation enrichment of 0.865. In the case of LLIVEYAKFGS [RET_Y806_YF], the phosphorylation enrichment is reported as 1.13. In the case of RLVVVYPWTQR [HBB_Y36_L33V], the phosphorylation enrichment is reported as 0.709. In the case of SEHLIYLEFKS [RASGRP1_Y215_T214I], the phosphorylation enrichment is reported as 5.64. With LDLSFYTTSSS [EMD_Y182_P183T_YF] the phosphorylation enrichment was 0.785. SVMAEYGLYGA [VSX2_Y219] was tested, and the phosphorylation enrichment was 4.66. In the case of CTTIHDNFMCN [TP53_Y234_Y234D_YF], the phosphorylation enrichment is reported as 0.436. Sequence LRKQDYQEILD [SLC35G2_Y403] has a phosphorylation enrichment of 0.468. Sequence RLRIDYERVSQ [DSP_Y1542] has a phosphorylation enrichment of 0.412. With YHLLPYTIRAM [PARS2_Y93_V95I] the phosphorylation enrichment was 5.16. PFNAEYGGGGG [AKR1B10_Y316] showed a phosphorylation enrichment of 0.285.

What follows are sequences tested on AncSZ in the same assay as above.
Work on QRRLVYFEGGA [RYR1_Y245_YF] yielded a phosphorylation enrichment of 3.89. Work on TFACSYTPVKA [FLNB_Y708_YF] yielded a phosphorylation enrichment of 1.16. For RETPLYKACER [ASB2_Y162], the phosphorylation enrichment was 0.777. DVYVSYDCGKS [SORL1_Y139_Y141C] was tested, and the phosphorylation enrichment was 1.6. PSELYYSKISP [SMG1_Y2254_G2258S] gave a phosphorylation enrichment of 2.87. Work on NEKNIYGVPLM [BMPR2_Y247_R248G] yielded a phosphorylation enrichment of 0.616. YPRTGYSVPYG [TGM1_Y370_L366P] was tested, and the phosphorylation enrichment was 0.714. In the case of FGSGNYNDFGN [HNRNPA2B1_Y300_YF], the phosphorylation enrichment is reported as 0.941. In the case of INPIIYAFVGE [CCR5_Y297], the phosphorylation enrichment is reported as 1.17. KLIMECLPYGS [JAK2_Y931_Y931C] showed a phosphorylation enrichment of 0.907. In the case of FGVVGYLAIVF [RNF175_Y155_M159V], the phosphorylation enrichment is reported as 1.4. ADDSFYTVRSA [ZAP70_Y493_A495V_YF] gave a phosphorylation enrichment of 0.884. With ERNTVYSSSGV [NELL2_Y350] the phosphorylation enrichment was 0.539. Work on FGAHKYHPLPV [OAT_Y55_N54K_YF] yielded a phosphorylation enrichment of 0.497. WFPYTYVEEDE [VAV3_Y842_S840Y] was tested, and the phosphorylation enrichment was 1.47. For EVNETYVPKEF [ALB_Y521_D518N], the phosphorylation enrichment was 1.19. Sequence VAFVFYKSIGP [ADGRL4_Y302_YF] has a phosphorylation enrichment of 1.2. SILAVYSKDIF [PANK2_Y400_N404I_YF] gave a phosphorylation enrichment of 0.691. With LARDMCDKEYY [MET_Y1230_Y1230C] the phosphorylation enrichment was 1.64. With DNQYAYLKAII [HNF4A_Y288_E285Q] the phosphorylation enrichment was 1.19. With AEPPDYSPVTH [ADGRG2_Y285] the phosphorylation enrichment was 1.66. In the case of HFPDVYAREQL [ALX3_Y181_YF], the phosphorylation enrichment is reported as 0.713. RRNNSYTCYTA [SLC20A2_Y386] gave a phosphorylation enrichment of 1.04. LLIVEYAKFGS [RET_Y806_YF] showed a phosphorylation enrichment of 1.79. RLVVVYPWTQR [HBB_Y36_L33V] was tested, and the phosphorylation enrichment was 1.07. For SEHLIYLEFKS [RASGRP1_Y215_T214I], the phosphorylation enrichment was 1.44. For LDLSFYTTSSS [EMD_Y182_P183T_YF], the phosphorylation enrichment was 2.23. SVMAEYGLYGA [VSX2_Y219] gave a phosphorylation enrichment of 0.709. In the case of CTTIHDNFMCN [TP53_Y234_Y234D_YF], the phosphorylation enrichment is reported as 0.841. LRKQDYQEILD [SLC35G2_Y403] was tested, and the phosphorylation enrichment was 0.995. Work on RLRIDYERVSQ [DSP_Y1542] yielded a phosphorylation enrichment of 1.08. Work on YHLLPYTIRAM [PARS2_Y93_V95I] yielded a phosphorylation enrichment of 1.14. For PFNAEYGGGGG [AKR1B10_Y316], the phosphorylation enrichment was 1.19.
